Measured values from PMC5980108, “ARE-mediated decay controls gene expression and cellular metabolism upon oxygen variations”.

T1: dTIS11-6His (UniProt P47980 1-436)
T1 sequence: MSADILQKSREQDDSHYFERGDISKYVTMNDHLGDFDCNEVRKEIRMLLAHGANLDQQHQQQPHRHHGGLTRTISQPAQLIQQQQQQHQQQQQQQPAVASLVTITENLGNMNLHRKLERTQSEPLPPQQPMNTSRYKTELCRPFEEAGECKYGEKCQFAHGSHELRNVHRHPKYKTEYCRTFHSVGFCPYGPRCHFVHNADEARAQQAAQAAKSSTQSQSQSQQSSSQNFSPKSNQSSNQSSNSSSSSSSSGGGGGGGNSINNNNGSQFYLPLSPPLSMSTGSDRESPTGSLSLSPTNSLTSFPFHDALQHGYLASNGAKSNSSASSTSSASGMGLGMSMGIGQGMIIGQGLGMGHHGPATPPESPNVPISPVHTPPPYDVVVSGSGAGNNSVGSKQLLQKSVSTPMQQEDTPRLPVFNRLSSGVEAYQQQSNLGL


Molecular target: T1, dTIS11-6His
Assay: ITC; 5 uM ZnCl2; ITC: 20 mM MES pH 6.5, 300 mM NaCl, 5 uM ZnCl2, 0.5 mM DTT, 10 C; EMSA: 20 mM Tris pH 7.8, 3 mM MgCl2, 40 mM KCl, 2 mM DTT, 5% glycerol, gel at 4 C
Details: protein: recombinant; tags: C-terminal 6His

Row | Binder | Kd | binding result
1 | CGAUUUAUUUAUUUAGA (ssRNA) [TNF ARE] | 895 nM | –
2 | GAUUAUUUAUAAUUAUUUAUUUAAAGAUCUAUUUAUUC (ssRNA) [CecA1 ARE] | 580 nM | –
3 | UGUUUAUUUUUAGUCCACCUCUCAAUUUAUUUAUUAUUUUUAUGA (ssRNA) [ImpL3 ARE (ITC)] | 2400 nM | –
4 | AUUCUAUUGUUUCUUCUUAUAUAUUGUUAUUCUUCACAUAAUGUU (ssRNA) [Scrambled ImpL3 ARE (ITC)] | – | no binding
